Test results reported in the Immune Epitope Database (IEDB).

Experiments:
[1] = target: HLA-A*02:02; assay: IEDB peptide-MHC binding, purified MHC/competitive/radioactivity; ≥ and ≤ were set here for values at or beyond the usual limits of such assays
[2] = target: HLA-A*02:03; assay: as above
[3] = target: HLA-A*68:02; assay: IEDB peptide-MHC binding, cellular MHC/competitive/fluorescence; ≥ and ≤ were set here for values at or beyond the usual limits of such assays
[4] = target: HLA-A*02:01; assay: as above
[5] = target: HLA-A*02:06; assay: as above
[6] = target: HLA-A*02:01; assay: IEDB peptide-MHC binding, purified MHC/competitive/radioactivity; ≥ and ≤ were set here for values at or beyond the usual limits of such assays
[7] = source organism: Vaccinia virus WR
[8] = source organism: Influenza A virus
[9] = source organism: Mammarenavirus whitewaterense
[10] = source organism: Hepacivirus hominis
[11] = source organism: Mammarenavirus choriomeningitidis
[12] = source organism: Mammarenavirus brazilense

Sequence	IC50 [1, 7]	IC50 [2, 7]	IC50 [3, 7]	IC50 [5, 7]	IC50 [6, 7]	other results
ITFLRPVLKA	3.16 µM	0.718 µM	21.4 µM	18 µM		IC50 [4, 7]: ≥ 70 µM
AAFEDLRLL						IC50 [1, 8]: 4.45 µM; IC50 [2, 8]: 1.47 µM; IC50 [3, 8]: 18.1 µM; IC50 [4, 8]: 15.5 µM; IC50 [5, 8]: 6.19 µM
SVGTGILFM	1.09 µM	2.25 µM	57.4 µM	20.7 µM		IC50 [4, 7]: 5.15 µM
INISGYNLSL						IC50 [6, 9]: 1.83 µM; IC50 [1, 9]: 0.179 µM; IC50 [2, 9]: 1.36 µM; IC50 [3, 9]: 17.4 µM; IC50 [5, 9]: 11.4 µM
SLALKNSQA	0.662 µM	0.459 µM	29.6 µM	19 µM	2.49 µM	
KIMSGEKPSV						IC50 [6, 10]: 1.12 µM; IC50 [1, 10]: 0.411 µM; IC50 [2, 10]: 1.39 µM; IC50 [3, 10]: ≥ 70 µM; IC50 [5, 10]: 9.47 µM
YVLLLFLLLA						IC50 [6, 10]: 0.866 µM; IC50 [1, 10]: 1.05 µM; IC50 [2, 10]: 0.727 µM; IC50 [3, 10]: 12 µM; IC50 [5, 10]: 5.9 µM
PLSINVSGV	1.12 µM	0.045 µM	22.5 µM	17.9 µM		IC50 [4, 7]: 6.54 µM
LLENKSLTIL	0.185 µM	0.541 µM	21.3 µM	7.43 µM	1.15 µM	
ALKNSQAELT	2.12 µM	0.98 µM	47.4 µM	27.2 µM		IC50 [4, 7]: 51 µM
NLYNIRNL						IC50 [6, 8]: 1.34 µM; IC50 [1, 8]: 1.33 µM; IC50 [2, 8]: 0.187 µM; IC50 [3, 8]: 15.3 µM; IC50 [5, 8]: 50.8 µM
TTQIIKLLPFA						IC50 [1, 8]: 2.19 µM; IC50 [2, 8]: 3.43 µM; IC50 [3, 8]: 8.22 µM; IC50 [4, 8]: 5.95 µM; IC50 [5, 8]: 11.6 µM
MAFILGIIIT	4.68 µM	2.83 µM	5.16 µM	10.3 µM	0.663 µM	
LITNTKSDNI	2.25 µM	3.08 µM	20.7 µM	18.8 µM		IC50 [4, 7]: ≥ 70 µM
NLVQYRILPM	3.99 µM	1.33 µM	≥ 70 µM	24.5 µM	1.44 µM	
HLENDKIEDL	0.526 µM	0.414 µM	27.1 µM	10.6 µM	1.8 µM	
VLTILYYGA	0.0013 µM	0.018 µM	18.6 µM	6.24 µM	0.212 µM	

Sequence	IC50 [1, 7]	IC50 [2, 7]	IC50 [3, 7]	IC50 [5, 7]	IC50 [6, 7]	other results
SLKRFTHTTA	0.884 µM	0.726 µM	6.08 µM	7.31 µM	4.54 µM	
LLFLVLIMLI						IC50 ([6]; source organism: SARS-CoV1): 0.592 µM; IC50 ([1]; source organism: SARS-CoV1): 0.447 µM; IC50 ([2]; source organism: SARS-CoV1): 3.15 µM; IC50 ([3]; source organism: SARS-CoV1): 5.1 µM; IC50 ([5]; source organism: SARS-CoV1): 8.3 µM
GLTTHCTKL	0.1 µM	0.03 µM	≥ 70 µM	31.6 µM	0.613 µM	
RILSEKRKDT	0.711 µM	4.16 µM	10 µM	6.87 µM		IC50 [4, 7]: 48.7 µM
KCMSAALKNL						IC50 [6, 11]: 1.56 µM; IC50 [1, 11]: 0.058 µM; IC50 [2, 11]: 0.193 µM; IC50 [3, 11]: 43.5 µM; IC50 [5, 11]: 14 µM
LLEMKYALI	0.354 µM	0.135 µM	35.8 µM	14.9 µM	2.54 µM	
QLSNNKYVL	0.079 µM	4.94 µM	12.5 µM	10.7 µM	1.81 µM	
DTGKKELALT	1.04 µM	0.262 µM	10 µM	6.8 µM	1.68 µM	
KLKVDSDSGL	0.075 µM	0.056 µM	28.2 µM	10 µM	2.37 µM	
ALTDVEKRI	0.074 µM	1.49 µM	23.9 µM	14.3 µM	1.15 µM	
VMPEKRNVVV	3.54 µM	0.299 µM	6.74 µM	27.6 µM	3.92 µM	
HIGHHYIWI	2.56 µM	0.899 µM	19.9 µM	25.3 µM	2.99 µM	
KCFGNTALA						IC50 [6, 12]: 3.33 µM; IC50 [1, 12]: 0.031 µM; IC50 [2, 12]: 1.09 µM; IC50 [3, 12]: 25.9 µM; IC50 [5, 12]: ≥ 70 µM
VLQQNNSFII	0.665 µM	1.03 µM	16.6 µM	9.63 µM	0.709 µM	
RLYNSLKRFT	1.06 µM	0.444 µM	14.6 µM	7.28 µM	0.873 µM	
IINSVSIIL	0.705 µM	2.9 µM	29.9 µM	25.9 µM	2.09 µM	
ILANERYRSA	0.104 µM	0.018 µM	26.5 µM	7.81 µM	0.802 µM	
